From article PMC9779223, “Impact of Troponin in Cardiomyopathy Development Caused by Mutations in Tropomyosin” (International Journal of Molecular Sciences, 2022)

Molecular target: T1, Tropomyosin C-terminal fragment Tpm WT 134–284 (human, UniProt P09493 134-284)
T1 construct: also called Tpm C-end; source: E. coli C41 (DE3), purified (anion exchange, HiTrap Q HP)
Assay: ITC; MicroCal PEAQ-ITC, 25 °C; 30 mM HEPES-Na pH 7.3, 100 mM NaCl, 1 mM DTT; sample in the cell 30 to 60 µM, ligand in the syringe 200 to 700 µM; one set of binding sites
Conditions: both partners purified

T1 sequence (P09493 134-284): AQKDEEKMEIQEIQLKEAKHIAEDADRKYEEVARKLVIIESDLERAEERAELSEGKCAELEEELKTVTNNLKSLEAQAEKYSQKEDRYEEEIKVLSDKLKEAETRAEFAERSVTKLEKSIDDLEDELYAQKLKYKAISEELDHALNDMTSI

Kd: 10.2 ± 0.3 µM
dH: 1.95 ± 0.15 kcal/mol
stoichiometry N: 1.17 ± 0.05
B1: Tropomyosin N-terminal fragment Tpm WT 1–133 (domain or fragment)
chain: not shown
notes: human tropomyosin Tpm1.1 (alpha-Tpm), residues 1-133 (ends at the trypsin site Arg133); Made from the full Tpm1.1 construct by primers that put a stop after Arg133; also called Tpm_(1–133); Tpm N-end; source: E. coli C41 (DE3), purified (anion exchange, HiTrap Q HP)
